From patent US7521432B2, “Compositions and methods for identifying agents which regulate chromosomal stability, gene activation and aging” (priority 2000, dated 2009)
Positions count from the first letter of the chain named. Numbers in names are those of the source. Where “and” joins values, the source holds several entries; their conditions need not be identical. Equal values may be shown once.

Legend:
[1] = tested on: Asterina miniata blastomere of two cell stage embryo; assay: Microinjection into one blastomere of two-cell stage embryo, early embryonic cell division; format: cell-based
Protocol: (§1) Asterina miniata gametes were collected and microinjections were performed as described previously (Carroll et al., 1999). Briefly, quantitative microinjection of Asterina miniata oocytes was performed at 16° C., using mercury-filled micropipets (Hiramoto, 1962; Kiehart, 1982; and see the information available at http://egg/uchc.edu/injection), allowing injection of precisely calibrated picoliter volumes into the oocytes and blastomeres. Injection volumes were 3% of the total cellular volume (for oocytes, 93 pL and for blastomeres, 47 pL). Buffer alone, purified O-acetylated ADP ribose or recombinant protein was injected into immature oocytes or one blastomere of a two cell stage embryo to a final concentration in the cytoplasm as indicated in the figure legends and Tables. 1-methyl adenine was from Sigma and was used at 10 μM.
To examine whether these SIR2 enzymes caused any phenotypic effects on early embryonic cell division, HST2 or the R45A mutant were micro-injected into one cell of the two-cell stage embryos. Asterina miniata oocytes were matured by addition of the hormone 1-methyladenine and then fertilized. One cell zygotes were then placed in injection chambers. After the first cell division, one daughter blastomere was microinjected with the indicated enzyme (see table and figure below). Embryos were monitored for further cell divisions over time. The non-injected daughter blastomere served as the internal control in each experiment. […] Again, there was a clear dosage effect that paralleled the effect observed on oocyte maturation.
Asterina miniata oocytes were matured by addition of the hormone 1-methyladenine and then fertilized. One cell zygotes were then placed in injection chambers. After the first cell division, one daughter blastomere was microinjected with the indicated enzyme. Embryos were monitored for further cell divisions over time. The non-injected daughter blastomere served as the internal control in each experiment. The number of injected embryos per treatment is given (n). Data are from two separate batches of oocytes.

[2] = tested on: Asterina miniata immature oocytes; assay: Microinjection into immature starfish oocytes, oocyte maturation (GVBD, polar body extrusion); format: cell-based; conditions: for maturation and fertilization of injected egg: 10 μM 1-MA
Protocol: as §1
Micro-injection assays were performed in starfish and sea urchin ooctyes. Historically echinoderm development has been a biochemically tractable and well-defined system to assess biological function of pruteins, bio-active compounds and for detailed analyses of the cell cycle. This system is attractive for its amenability to quantitative microinjection assays, cell cycle analyses, biochemical fractionation and microscopic imaging of eggs and early embryos. Initially, we hypothesized that if O-acetyl-ADP ribose produced by SIR2 was involved in SIR2's gene silencing ability, then micro-injection of O-acetyl-ADP ribose into a maturing oocyte should give rise to a phenotypic effect on the developing animal, perhaps through perturbations in normal gene expression patterns. Immature oocytes were micro-injected with HPLC-purified O-acetyl-ADP ribose or with a buffer control. The oocytes were allowed to mature by the addition of 1-methyladenine and assessed for developmental alterations.
Asterina miniata immature oocytes were microinjected with the amounts of O-acetyl ADP ribose in PBS. The maturation hormone 1-methyladenine was added (10 μM) 25-30 minutes post-injection. Oocytes were monitored for GVBD and polar body extrusion. […] The number of oocytes per treatment is given. Combined results of 3 separate experiments (3 batches of O-acetyl ADP ribose).
Asterina miniata immature oocytes were microinjected with the given enzymes in PBS. The maturation hormone 1-methyladenine was added (10 μM) 25-30 minutes post-injection. Oocytes were monitored for GVBD and polar body extrusion. […] The number of oocytes per treatment (n) is given. Data are from four separate batches of oocytes. All oocytes for a given treatment responded in the same way unless indicated otherwise (e.g. see 200 nM HST2 injection).

[3] = molecular target: acetyl-peptide (Saccharomyces cerevisiae, UniProt P53686, R45A); assay: Catalytic efficiency of R45A mutant compared to wild type HST2; format: biochemical; conditions: unpublished data
Excerpt: To complement these studies, we micro-injected active yeast HST2 and human SIR2 enzymes instead of O-acetyl-ADP ribose. We hypothesized that if acetylated protein substrates were available in the oocyte, then micro-injected enzyme would provide a more constant source of O-acetyl-ADP ribose. As a control, a catalytically impaired mutant of HST2 (R45A) was employed to ensure that any effects were due to the catalytic activity of the enzyme. The R45A mutant is >50-fold lower in catalytic efficiency (kcat and kcat/Km for acetyl-peptide) compared to wild type enzyme (unpublished data).

[4] = final conc 200 nM in blastomere

Chain of acetyl-peptide (P53686 whole entry R45A): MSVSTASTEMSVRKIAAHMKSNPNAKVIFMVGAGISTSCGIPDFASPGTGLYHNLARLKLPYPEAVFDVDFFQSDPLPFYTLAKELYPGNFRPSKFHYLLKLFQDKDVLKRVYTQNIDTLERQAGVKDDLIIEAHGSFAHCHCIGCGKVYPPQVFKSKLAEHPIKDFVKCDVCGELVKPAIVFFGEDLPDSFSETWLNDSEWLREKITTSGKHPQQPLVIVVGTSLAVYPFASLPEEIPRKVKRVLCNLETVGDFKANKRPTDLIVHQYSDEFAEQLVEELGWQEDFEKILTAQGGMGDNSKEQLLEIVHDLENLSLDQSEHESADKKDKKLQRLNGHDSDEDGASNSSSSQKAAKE

B1: HST2: yeast SIR2 homolog, recombinant histidine tagged full length NAD-dependent deacetylase (protein, UniProt P53686 2-357, looked up)
NAD-dependent protein …: SVSTASTEMSVRKIAAHMKSNPNAKVIFMVGAGISTSCGIPDFRSPGTGLYHNLARLKLPYPEAVFDVDFFQSDPLPFYTLAKELYPGNFRPSKFHYLLKLFQDKDVLKRVYTQNIDTLERQAGVKDDLIIEAHGSFAHCHCIGCGKVYPPQVFKSKLAEHPIKDFVKCDVCGELVKPAIVFFGEDLPDSFSETWLNDSEWLREKITTSGKHPQQPLVIVVGTSLAVYPFASLPEEIPRKVKRVLCNLETVGDFKANKRPTDLIVHQYSDEFAEQLVEELGWQEDFEKILTAQGGMGDNSKEQLLEIVHDLENLSLDQSEHESADKKDKKLQRLNGHDSDEDGASNSSSSQKAAKE
development of injected cells ([1]; 25 nM, most cells): developed normally | division of injected blastomere ([1]; 200 nM, injected after complete cytokinesis, FIG. 10C): divided once, then both daughters stopped | effect on cell division of injected blastomere ([1]; at and above 72 nM): complete block in cell division either at the next or subsequent division | Effects: 3rd cell division ([1]; final conc 25 nM in blastomere): Normal | Effects: Next cell division ([1]; final conc 25 nM in blastomere): 4/5 normal and 1/5 as slight | Effects: other ([1]; final conc 25 nM in blastomere): Normal | Effects: 3rd cell division ([1]; final conc 72 nM in blastomere): Complete | Effects: Next cell division ([1]; final conc 72 nM in blastomere): 4/10 slight and 6/10 no | Effects: 3rd cell division [1, 4]: Complete | Effects: Next cell division [1, 4]: 2/7 slight and 5/7 no | maturation and fertilization of injected egg ([2]; 200 nM final, fertilized 4 hours later, FIG. 10A): failed to mature | injected eggs in chamber behaving the same way (failed to mature) ([2]; 200 nM final, FIG. 10A): 10 of 10 | effect on oocyte maturation ([2]; above 72 nM): complete block in maturation | Effects/Notes (oocyte maturation) ([2]; final conc 25 nM): no effect was observed | Effects/Notes (oocyte maturation) ([2]; final conc 60 nM): 2 hr delay in GVBD and polar body extrusion | Effects/Notes (oocyte maturation) ([2]; final conc 72 nM): complete block | Effects/Notes (oocyte maturation) ([2]; final conc 200 nM): complete block in 9/10; 3 hr delay 1/10

B2: HST2 R45A: catalytically impaired mutant of HST2 (R45A) (protein, UniProt P53686 2-357, looked up, variant R45A)
NAD-dependent protein …: B1 NAD-dependent protein … with R44A
phenotype of injected blastomere ([1]; any concentration): no phenotype | Effects: 3rd cell division ([1]; final conc 25 nM in blastomere): Normal | Effects: Next cell division ([1]; final conc 25 nM in blastomere): Normal | Effects: other ([1]; final conc 25 nM in blastomere): Normal | Effects: 3rd cell division ([1]; final conc 72 nM in blastomere): Normal | Effects: Next cell division ([1]; final conc 72 nM in blastomere): Normal | Effects: other ([1]; final conc 72 nM in blastomere): Normal | Effects: 3rd cell division [1, 4]: Normal | Effects: Next cell division [1, 4]: normal | Effects: other [1, 4]: Normal | lower in catalytic efficiency (kcat and kcat/Km for acetyl-peptide) compared to wild type enzyme [3]: > 50 fold | maturation and fertilization of injected egg ([2]; fertilized four hours later, FIG. 10B): matured and were fertilized normally | injected eggs in chamber behaving the same way (matured, fertilized normally) ([2]; FIG. 10B): 7 of 7 | effect on oocyte maturation ([2]; any concentration from 25-200 nM): no observed effects | Effects/Notes (oocyte maturation) ([2]; final conc 25 nM): no observed effect | Effects/Notes (oocyte maturation) ([2]; final conc 60 nM): no observed effect | Effects/Notes (oocyte maturation) ([2]; final conc 72 nM): no observed effect | Effects/Notes (oocyte maturation) ([2]; final conc 200 nM): no observed effect

B3: hSIRT2: human SIR2 enzyme (protein, UniProt Q8IXJ6 2-389, looked up)
NAD-dependent protein …: AEPDPSHPLETQAGKVQEAQDSDSDSEGGAAGGEADMDFLRNLFSQTLSLGSQKERLLDELTLEGVARYMQSERCRRVICLVGAGISTSAGIPDFRSPSTGLYDNLEKYHLPYPEAIFEISYFKKHPEPFFALAKELYPGQFKPTICHYFMRLLKDKGLLLRCYTQNIDTLERIAGLEQEDLVEAHGTFYTSHCVSASCRHEYPLSWMKEKIFSEVTPKCEDCQSLVKPDIVFFGESLPARFFSCMQSDFLKVDLLLVMGTSLQVQPFASLISKAPLSTPRLLINKEKAGQSDPFLGMIMGLGGGMDFDSKKAYRDVAWLGECDQGCLALAELLGWKKELEDLVRREHASIDAQSGAGVPNPSTSASPKKSPPPAKDEARTTEREKPQ
effect on oocyte maturation ([2]; above 72 nM): complete block in maturation | Effects/Notes (oocyte maturation) ([2]; final conc 25 nM): no effect was observed | Effects/Notes (oocyte maturation) ([2]; final conc 60 nM): 2 hr delay in GVBD and polar body extrusion and polar | Effects/Notes (oocyte maturation) ([2]; final conc 200 nM): complete block
